Assay results: article PMC8377413

Experiments:
[1] = molecular target: Osj10gBTF3 (recombinant, Expi293) (rice); assay: MST; Monolith NT.115; 100 nM target protein labelled with His-Tag Labeling Kit RED-tris-NTA 2nd generation, serial dilutions of unlabelled ligand; PBS with 0.05% Tween 20; 35% MST power, 60% LED power, 24°C
[2] = molecular target: OsPPR676 (recombinant, Expi293) (rice); assay: as above

Substance | Kd [1] | Kd [2]
OsCpn60 (recombinant, Expi293) (natural protein) | 9.8 µM | 15.1 µM
OsPPR676 (recombinant, Expi293) (natural protein) | 24.3 µM | –
